This note sets out measurements from the supplement of paper PMC10567573.

A short description of the data set: protein stability index of a GFP-peptide fusion (GPS, HEK-293T) (PSI 1-6); higher = more stable.
Setting [1] is: treatment: DMSO, c terminus: a fixed tail appended.
[2] abbreviates: treatment: MLN4924 1 uM, 8 h, c terminus: a fixed tail appended.
The mark [3] stands for this setting: treatment: DMSO, c terminus: native.
Where [4] appears, read: treatment: MLN4924 1 uM, 8 h, c terminus: native.

± gives the standard deviation.
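Note: 24-mer peptide tiles fused after GFP, lentivirally expressed, FACS-sorted into six equal bins by GFP/DsRed ratio, decoded by Illumina sequencing, PSI is the read-weighted mean bin number.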

VYCGAGVQKEHEEYMKNLLKVGGI [PCMTD2] yielded a protein stability index under setting [1] of 2.75 ± 0.22 and a protein stability index under setting [2] of 2.9 ± 0.28.
The like results for WDLRFRIIHETAVGMNFLHCMAPP [RIPK4] were, in that order, 2.89 ± 0.73 and 2.82 ± 0.83.
Taken in the same sequence, the figures for WFLNALHSALGGTKKKKKTIVTDV [USP39] were 2.6 ± 0.61 and 2.19 ± 0.47.
The like results for WGRLTSYSGGGYYLDLPGSRQGSA [PKD2L1] were, in that order, 2.63 ± 0.18 and 2.69 ± 0.18.
As for WIGYEHTSFCGQQFILERGEYPRW [CRYBA1], the protein stability index amounted to 2.69 ± 0.41 under setting [1] and 2.21 ± 0.15 under setting [2].
The like results for WIHCFEGVTAIIFCVALSDYDLVL [GNAI1] were, in that order, 3.2 ± 0.53 and 3.22 ± 0.24.
Taken in the same sequence, the figures for WNFDFVTETPLEGDFAWERVRGLG [CDKN1A] were 2.54 ± 0.42 and 2.8 ± 0.39.
Taken in the same sequence, the figures for WNVAAPLYLKQSDLASAAAKQIME [INTS4] were 2.67 ± 0.13 and 2.81 ± 0.05.
Regarding WPSAKSAGWTLATLGEQGLPHQSH [SCNN1D], the protein stability index by setting is: under setting [1], 3.36 ± 0.43; under setting [2], 3.17 ± 0.4.
As to WQVLKTHPGDPRFQCSLWHLYPL [POLD4], the protein stability index by setting is: under setting [3], 2.42 ± 0.62; under setting [4], 2.14 ± 0.33.
Regarding WRKRFTEQPITDFCSVIRINSTAP [ZNF277], the protein stability index is 2.48 ± 0.55 under setting [1] and 2.23 ± 0.087 under setting [2].
The like results for WTLEDEIHSPAHPEIEKADDHLQQ [ZNF649] were, in that order, 5.2 ± 0.34 and 5.26 ± 0.3.
Taken in the same sequence, the figures for WVHKHFTEDIQTRQYRSIEVLIGA [SRPK2] were 2.37 ± 0.18 and 2.27 ± 0.41.
Taken in the same sequence, the figures for YAADRNCMWSKKCSGVACLVKDNP [WASL] were 3.08 ± 0.95 and 2.49 ± 0.3.
YCHPDSETDEDEEEGDEQQRLLNT [GMCL1]: the protein stability index under setting [1] was determined as 5.33 ± 0.37 and the protein stability index under setting [2] worked out at 5.2 ± 0.36.
Taken in the same sequence, the figures for YEETGFYEIEIQAEDGGAYLATAK [PCDHGA10] were 3.57 ± 0.14 and 3.72 ± 0.29.
The like results for YEIRVKTNLPIFKLKESTVRRRYS [SNX3] were, in that order, 2.44 ± 0.4 and 2.27 ± 0.22.
The like results for YGPQVNNISHTKEKKKGKAKKKRL [WASL] were, in that order, 4.48 ± 0.34 and 4.68 ± 0.29.
On to YGQFTCEGCKSFFKRSVRRNLSYT [NR2F2], for which the protein stability index runs as follows: under setting [1], 2.33 ± 0.12; under setting [2], 2.33 ± 0.21.
Taken in the same sequence, the figures for YGYAAQARARERERLAHSRAAAAA [KCNA4] were 3.9 ± 0.26 and 4.02 ± 0.097.
Taken in the same sequence, the figures for YHLEKQTALLGGPRRCHSAPPQGS [PLEKHN1] were 3.28 ± 0.036 and 3.14 ± 0.53.
The like results for YIGTHEYPHFSHRPSTLQAASTPQ [OAS1] were, in that order, 2.61 ± 0.56 and 3.16 ± 0.48.
For the sequence YKCAECGKSFCHSTHLTVHRRIHT [ZNF8], the protein stability index is 3.9 ± 0.18 under setting [1] and 4.42 ± 0.16 under setting [2].
Take YLLQFARKPVEAESVEGVVRILLE [INTS4]: the protein stability index is, setting by setting: under setting [1], 2.19 ± 0.24; under setting [2], 2.27 ± 0.25.
On to YLMKTKQFRLKEAFDYIKQRRSMV [DUSP5], for which the protein stability index amounted to 2.19 ± 0.38 under setting [1] and 2.11 ± 0.33 under setting [2].
Taken in the same sequence, the figures for YLSPLERKRLAREMQLSEVQIKTW [VENTX] were 2.5 ± 0.2 and 2.7 ± 0.24.
Taken in the same sequence, the figures for YMAICKPLHELITMNRRVCVLMLL [OR4A15] were 2.79 ± 0.49 and 2.35 ± 0.32.
The like results for YMDTKLLVARFLEQSSCTMTPDIH [FAM189A2] were, in that order, 2.15 ± 0.45 and 2.18 ± 0.084.
Consider YNWEEERATNHLDQVPSMQDGSES [SPAG8], for which the protein stability index by setting is: under setting [1], 5.33 ± 0.23; under setting [2], 5.44 ± 0.15.
Taken in the same sequence, the figures for YPPLEGHVRQGVFSSLNHIVEKRV [INTS3] were 3.17 ± 0.3 and 3.38 ± 0.38.
The like results for YRFDSSSCSSEDNLSLVCLPRSED [DRICH1] were, in that order, 4.46 ± 0.16 and 4.51 ± 0.15.
With YRQPIPVQELVLEDLQDGDVRMGG [NET1], the protein stability index runs as follows: under setting [1], 4.4 ± 0.29; under setting [2], 4.56 ± 0.34.
The like results for YRTWNVVVHDWLYSYVYQDGLRLL [SOAT2] were, in that order, 3.02 ± 0.41 and 2.82 ± 0.84.
Consider YSPRRSRGSPRYSPRHSRSRSRT [SRSF1], for which the protein stability index runs as follows: under setting [3], 4.18 ± 0.35; under setting [4], 4.49 ± 0.26.
For YTFLYLVCISTKTQCSEEDQCKIN [FEM1B], the protein stability index reads like this: under setting [1], 2.65 ± 0.51; under setting [2], 2.33 ± 0.2.
For YTGPSSSGRFAGREWYYGNVTRHQ [NCK2], the protein stability index by setting is: under setting [1], 2.35 ± 0.31; under setting [2], 2.65 ± 0.58.
The like results for YVKVLHHMVKISGGPHISYPPLHE [MAGEA3] were, in that order, 2.33 ± 0.61 and 2.58 ± 0.31.
In the case of YVPNMLGIIPYAGIDLAVYETLKN [SLC25A25], the protein stability index reads like this: under setting [1], 2.87 ± 0.19; under setting [2], 2.61 ± 0.5.
